Results from patent US20060084792A1 (UNITED STATES OF AMERICA AS REPRESENTED BY THE …, published 2006).

B1: position 153 circular permutant chaperonin protein (Sulfolobus shibatae TF55 beta subunit, termini relocated after residue 153) (other)
chain: MAINDTDVLRKVALTSLGSKAVAGAREYLADLVVKAVAQVAELRGDKWYVDLDNVQIVKKHGGSINDTQLVYGIVVDKEVVHPGMPKRIENAKIALLDASLEVEKPELDAEIRINDPTQMHKFLEEEENILKEKVDKIAATGANVVIAQKGIDEVAQHYLAKKGILAVRRAKKSDLEKLARATGGRVISNIDELTSQDLGYAALVEERKVGEDKIVFVEGAKNPKSVSILIRGGLERVVDETERALRDALGTVADVIRDGRAVAGGGAVEIEIAKRLRKYAPQVGGKEQLAIEAYANAIEGLIMILAENAGLDPIDKLMQLRSLHENETNKWYGLNLFTGNPEDMWKLGVIEPALVKMNAIKAATEAVTLVLRIDDIVGGSGGTIPVIILKEGSSRTYGKEALRANIAAVKAIEEALKSTYGPRGMDKILVDSLGDITITNDGATILDKMDLQHPTGKLLVQIAKGQDEETADGTKTAVILAGELAKKAEDLLYKEIHPTIIVSGYKKAEEIALKTIQDIAQPVS
notes: Entry is the single subunit; Original termini are joined by the linker GGSGGT; also called circular permutant at position 153; permutant 153
B2: position 316 circular permutant chaperonin protein (Sulfolobus shibatae TF55 beta subunit, termini relocated after residue 316) (other)
chain: MAILAVRRAKKSDLEKLARATGGRVISNIDELTSQDLGYAALVEERKVGEDKIVFVEGAKNPKSVSILIRGGLERVVDETERALRDALGTVADVIRDGRAVAGGGAVEIEIAKRLRKYAPQVGGKEQLAIEAYANAIEGLIMILAENAGLDPIDKLMQLRSLHENETNKWYGLNLFTGNPEDMWKLGVIEPALVKMNAIKAATEAVTLVLRIDDIVGGSGGTIPVIILKEGSSRTYGKEALRANIAAVKAIEEALKSTYGPRGMDKILVDSLGDITITNDGATILDKMDLQHPTGKLLVQIAKGQDEETADGTKTAVILAGELAKKAEDLLYKEIHPTIIVSGYKKAEEIALKTIQDIAQPVSINDTDVLRKVALTSLGSKAVAGAREYLADLVVKAVAQVAELRGDKWYVDLDNVQIVKKHGGSINDTQLVYGIVVDKEVVHPGMPKRIENAKIALLDASLEVEKPELDAEIRINDPTQMHKFLEEEENILKEKVDKIAATGANVVIAQKGIDEVAQHYLAKKG
notes: Entry is the single subunit; Original termini are joined by the linker GGSGGT; Assembles into double rings with two rings of nine subunits each; also called circular permutant at position 316; permutant 316
B3: position 480 circular permutant chaperonin protein (Sulfolobus shibatae TF55 beta subunit, termini relocated after residue 480) (other)
chain: MANKWYGLNLFTGNPEDMWKLGVIEPALVKMNAIKAATEAVTLVLRIDDIVGGSGGTIPVIILKEGSSRTYGKEALRANIAAVKAIEEALKSTYGPRGMDKILVDSLGDITITNDGATILDKMDLQHPTGKLLVQIAKGQDEETADGTKTAVILAGELAKKAEDLLYKEIHPTIIVSGYKKAEEIALKTIQDIAQPVSINDTDVLRKVALTSLGSKAVAGAREYLADLVVKAVAQVAELRGDKWYVDLDNVQIVKKHGGSINDTQLVYGIVVDKEVVHPGMPKRIENAKIALLDASLEVEKPELDAEIRINDPTQMHKFLEEEENILKEKVDKIAATGANVVIAQKGIDEVAQHYLAKKGILAVRRAKKSDLEKLARATGGRVISNIDELTSQDLGYAALVEERKVGEDKIVFVEGAKNPKSVSILIRGGLERVVDETERALRDALGTVADVIRDGRAVAGGGAVEIEIAKRLRKYAPQVGGKEQLAIEAYANAIEGLIMILAENAGLDPIDKLMQLRSLHENET
notes: Entry is the single subunit; Original termini are joined by the linker GGSGGT; Assembles into double rings with two rings of nine subunits each; also called circular permutant at position 480; permutant 480
B4: position 499 circular permutant chaperonin protein (Sulfolobus shibatae TF55 beta subunit, termini relocated after residue 499) (other)
chain: MALGVIEPALVKMNAIKAATEAVTLVLRIDDIVGGSGGTIPVIILKEGSSRTYGKEALRANIAAVKAIEEALKSTYGPRGMDKILVDSLGDITITNDGATILDKMDLQHPTGKLLVQIAKGQDEETADGTKTAVILAGELAKKAEDLLYKEIHPTIIVSGYKKAEEIALKTIQDIAQPVSINDTDVLRKVALTSLGSKAVAGAREYLADLVVKAVAQVAELRGDKWYVDLDNVQIVKKHGGSINDTQLVYGIVVDKEVVHPGMPKRIENAKIALLDASLEVEKPELDAEIRINDPTQMHKFLEEEENILKEKVDKIAATGANVVIAQKGIDEVAQHYLAKKGILAVRRAKKSDLEKLARATGGRVISNIDELTSQDLGYAALVEERKVGEDKIVFVEGAKNPKSVSILIRGGLERVVDETERALRDALGTVADVIRDGRAVAGGGAVEIEIAKRLRKYAPQVGGKEQLAIEAYANAIEGLIMILAENAGLDPIDKLMQLRSLHENETNKWYGLNLFTGNPEDMWK
notes: Entry is the single subunit; Original termini are joined by the linker GGSGGT; Assembles into double rings with two rings of nine subunits each; also called circular permutant at position 499; permutant 499
B5: position 267 circular permutant chaperonin protein (Sulfolobus shibatae TF55 beta subunit, termini relocated after residue 267) (other)
chain: MADPTQMHKFLEEEENILKEKVDKIAATGANVVIAQKGIDEVAQHYLAKKGILAVRRAKKSDLEKLARATGGRVISNIDELTSQDLGYAALVEERKVGEDKIVFVEGAKNPKSVSILIRGGLERVVDETERALRDALGTVADVIRDGRAVAGGGAVEIEIAKRLRKYAPQVGGKEQLAIEAYANAIEGLIMILAENAGLDPIDKLMQLRSLHENETNKWYGLNLFTGNPEDMWKLGVIEPALVKMNAIKAATEAVTLVLRIDDIVGGSGGTIPVIILKEGSSRTYGKEALRANIAAVKAIEEALKSTYGPRGMDKILVDSLGDITITNDGATILDKMDLQHPTGKLLVQIAKGQDEETADGTKTAVILAGELAKKAEDLLYKEIHPTIIVSGYKKAEEIALKTIQDIAQPVSINDTDVLRKVALTSLGSKAVAGAREYLADLVVKAVAQVAELRGDKWYVDLDNVQIVKKHGGSINDTQLVYGIVVDKEVVHPGMPKRIENAKIALLDASLEVEKPELDAEIRIN
notes: Entry is the single subunit; Original termini are joined by the linker GGSGGT; Assembles into double rings with two rings of nine subunits each

Tests used:
[1] = target: the molecule itself; assay: TEM, negative stain, after adding 1 mM ATP and 25 mM Mg2+; self-assembly of subunits
Experimental: (§1) Samples were prepared for the electron microscope by drop casting on carbon-coated formvar substrates (Ladd) and stained with 1% uranyl acetate. Samples were visualized using a Leo 912AB electron microscope in bright field TEM mode at 65 kV with a tungsten filament electron source.
(§2) Samples of the five different circular permutated chaperonin polypeptides (without the joined EYFP sequence) were analyzed at 1 hour or 24 hours after addition of 1 mM ATP and 25 mM Mg²⁺ (FIG. 19A-J). All five circular permuted chaperonins analyzed formed double rings having the same structure as wild-type chaperonin double rings, with two rings of nine subunits each (FIG. 19A-E). […] The circular permutated chaperonin polypeptides 480 and 499 formed predominantly filamentous structures. For permutants at positions 480 and 499, heating the sample to 70 degrees C. for 30 minutes immediately after addition of ATP and Mg²⁺ produced longer filaments.

[2] = target: the molecule itself; assay: non-denaturing gradient PAGE (FIG. 18) and TEM; self-assembly of subunits
Experimental: (§3) The purity of the proteins was evaluated using denaturing polyacrylamide gel electrophoresis (GeneMate 8-16% Express Gels, ISC BioExpress). The ability of each of the circular permutations to form double rings was assessed by non-denaturing 4-40% gradient polyacrylamide gel (FIG. 18) as previously described (J K Trent, et al., 1991 Nature 354:490-493).
as §1, §2

[3] = target: the molecule itself; assay: summary of native PAGE and TEM; self-assembly of subunits
Experimental: as §3, §1, §2

Row | Protein | binding result [2] | further results
1 | B1 | – | binding result [1]: binds
2 | B2 | binds | –
3 | B3 | binds | –
4 | B4 | binds | –
5 | B5 | – | binding result [3]: binds
